This note sets out measurements from patent US20130005646A1 (Novo Nordisk, published 2013).

Starred links: 1 amine or outer side, 2 acyl side, 3 side chain; linkers in the order of their positions; H or OH if unused. Positions of bridges follow the written chain, without caps; N, C: chain ends. *: point of attachment. C20 diacid = O=C(O)CCCCCCCCCCCCCCCCCCC(=O)*; γGlu = O=C(O)[C@H](CCC(=O)[*:2])N[*:1]

Assay [1] deals with T1, human amylin 3(a) receptor (human calcitonin receptor + RAMP-3) (human, UniProt P30988 25-474; O60896 24-148).
T1 sequence (looked up) 1: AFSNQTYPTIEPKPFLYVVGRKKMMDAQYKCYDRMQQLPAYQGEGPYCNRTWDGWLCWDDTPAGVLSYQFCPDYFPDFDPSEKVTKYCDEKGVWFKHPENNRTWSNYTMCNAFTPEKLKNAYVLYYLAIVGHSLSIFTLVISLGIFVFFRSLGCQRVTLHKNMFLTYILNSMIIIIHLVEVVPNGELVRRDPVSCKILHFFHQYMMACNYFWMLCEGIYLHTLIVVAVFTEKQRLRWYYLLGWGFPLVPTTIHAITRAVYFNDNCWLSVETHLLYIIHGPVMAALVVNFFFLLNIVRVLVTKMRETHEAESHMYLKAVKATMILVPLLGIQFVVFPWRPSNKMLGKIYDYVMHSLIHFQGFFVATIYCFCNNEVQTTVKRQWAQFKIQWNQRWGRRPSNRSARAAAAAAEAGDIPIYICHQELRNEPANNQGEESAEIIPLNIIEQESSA
T1 sequence (looked up) 2: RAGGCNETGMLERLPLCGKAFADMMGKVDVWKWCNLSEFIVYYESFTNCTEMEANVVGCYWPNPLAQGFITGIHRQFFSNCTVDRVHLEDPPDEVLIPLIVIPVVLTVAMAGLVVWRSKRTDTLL
Kind of assay: cell-based or functional assay.

Assay [2] concerns the target T2, human calcitonin (a) receptor (human, UniProt P30988 25-474).
T2 sequence (looked up): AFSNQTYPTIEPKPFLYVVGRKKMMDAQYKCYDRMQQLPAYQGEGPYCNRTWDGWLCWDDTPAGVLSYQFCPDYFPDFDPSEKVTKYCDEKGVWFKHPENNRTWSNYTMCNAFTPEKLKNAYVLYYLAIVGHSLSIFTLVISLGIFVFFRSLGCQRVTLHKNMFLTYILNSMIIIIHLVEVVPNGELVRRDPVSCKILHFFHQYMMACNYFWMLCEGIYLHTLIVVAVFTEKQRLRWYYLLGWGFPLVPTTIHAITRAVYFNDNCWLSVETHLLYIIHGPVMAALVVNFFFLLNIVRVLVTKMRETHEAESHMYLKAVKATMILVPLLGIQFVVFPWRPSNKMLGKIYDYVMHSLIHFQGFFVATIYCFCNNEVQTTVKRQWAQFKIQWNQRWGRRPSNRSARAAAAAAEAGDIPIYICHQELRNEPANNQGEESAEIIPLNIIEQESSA
Kind of assay: cell-based or functional assay.

B1: N-alpha-[(S)-4-Carboxy-4-(19-carboxynonadecanoylamino)butyryl]-[Glu14,His17,His34]-pramlintide (peptide)
peptide: {C20 diacid-γGlu}-KCNTATCATQRLAEFLHHSSNNFGPILPPTNVGHNTY-NH2
modifications: disulfide 2-7
SMILES: CC[C@H](C)[C@H](NC(=O)[C@@H]1CCCN1C(=O)CNC(=O)[C@H](Cc1ccccc1)NC(=O)[C@H](CC(N)=O)NC(=O)[C@H](CC(N)=O)NC(=O)[C@H](CO)NC(=O)[C@H](CO)NC(=O)[C@H](Cc1c[nH]cn1)NC(=O)[C@H](Cc1c[nH]cn1)NC(=O)[C@H](CC(C)C)NC(=O)[C@H](Cc1ccccc1)NC(=O)[C@H](CCC(=O)O)NC(=O)[C@H](C)NC(=O)[C@H](CC(C)C)NC(=O)[C@H](CCCNC(=N)N)NC(=O)[C@H](CCC(N)=O)NC(=O)[C@@H](NC(=O)[C@H](C)NC(=O)[C@@H]1CSSC[C@H](NC(=O)[C@H](CCCCN)NC(=O)CC[C@H](NC(=O)CCCCCCCCCCCCCCCCCCC(=O)O)C(=O)O)C(=O)N[C@@H](CC(N)=O)C(=O)N[C@@H]([C@@H](C)O)C(=O)N[C@@H](C)C(=O)N[C@@H]([C@@H](C)O)C(=O)N1)[C@@H](C)O)C(=O)N[C@@H](CC(C)C)C(=O)N1CCC[C@H]1C(=O)N1CCC[C@H]1C(=O)N[C@H](C(=O)N[C@@H](CC(N)=O)C(=O)N[C@H](C(=O)NCC(=O)N[C@@H](Cc1c[nH]cn1)C(=O)N[C@@H](CC(N)=O)C(=O)N[C@H](C(=O)N[C@@H](Cc1ccc(O)cc1)C(N)=O)[C@@H](C)O)C(C)C)[C@@H](C)O
Turning to B1, the “Amylin receptor human EC50” value in assay [1] turned out to be 129 pM. For the same molecule, the “CTa receptor human EC50” value in assay [2] turned out to be 114 pM.

B2: N-alpha-[(S)-4-Carboxy-4-(19-carboxynonadecanoylamino)butyryl]-[Glu14,His17,Lys35]-pramlintide (peptide)
peptide: {C20 diacid-γGlu}-KCNTATCATQRLAEFLHHSSNNFGPILPPTNVGSKTY-NH2
modifications: disulfide 2-7; not fully specified; printed as N-alpha-[(S)-4-Carboxy-4-(19-carboxynonadecanoylamino)butyryl]-[Glu14,His17,Lys35]-pramlintide
As to B2, in assay [1], the “Amylin receptor human EC50” value worked out at 134 pM. Besides, the “CTa receptor human EC50” value in assay [2] amounted to 130 pM.

B3: N-alpha-[(S)-4-Carboxy-4-(19-carboxynonadecanoylamino)butyryl]-[Glu14,His17,His36]-pramlintide (peptide)
peptide: {C20 diacid-γGlu}-KCNTATCATQRLAEFLHHSSNNFGPILPPTNVGSNHY-NH2
modifications: disulfide 2-7; not fully specified; printed as N-alpha-[(S)-4-Carboxy-4-(19-carboxynonadecanoylamino)butyryl]-[Glu14,His17,His36]-pramlintide
Take B3: in assay [1], the “Amylin receptor human EC50” value is 382 pM. Besides, the “CTa receptor human EC50” value in assay [2] amounted to 112 pM.

B4: N-alpha-[(S)-4-Carboxy-4-(19-carboxynonadecanoylamino)butyryl]-[Glu14,His17,His32]-pramlintide (peptide)
peptide: {C20 diacid-γGlu}-KCNTATCATQRLAEFLHHSSNNFGPILPPTNHGSNTY-NH2
modifications: disulfide 2-7
SMILES: CC[C@H](C)[C@H](NC(=O)[C@@H]1CCCN1C(=O)CNC(=O)[C@H](Cc1ccccc1)NC(=O)[C@H](CC(N)=O)NC(=O)[C@H](CC(N)=O)NC(=O)[C@H](CO)NC(=O)[C@H](CO)NC(=O)[C@H](Cc1c[nH]cn1)NC(=O)[C@H](Cc1c[nH]cn1)NC(=O)[C@H](CC(C)C)NC(=O)[C@H](Cc1ccccc1)NC(=O)[C@H](CCC(=O)O)NC(=O)[C@H](C)NC(=O)[C@H](CC(C)C)NC(=O)[C@H](CCCNC(=N)N)NC(=O)[C@H](CCC(N)=O)NC(=O)[C@@H](NC(=O)[C@H](C)NC(=O)[C@@H]1CSSC[C@H](NC(=O)[C@H](CCCCN)NC(=O)CC[C@H](NC(=O)CCCCCCCCCCCCCCCCCCC(=O)O)C(=O)O)C(=O)N[C@@H](CC(N)=O)C(=O)N[C@@H]([C@@H](C)O)C(=O)N[C@@H](C)C(=O)N[C@@H]([C@@H](C)O)C(=O)N1)[C@@H](C)O)C(=O)N[C@@H](CC(C)C)C(=O)N1CCC[C@H]1C(=O)N1CCC[C@H]1C(=O)N[C@H](C(=O)N[C@@H](CC(N)=O)C(=O)N[C@@H](Cc1c[nH]cn1)C(=O)NCC(=O)N[C@@H](CO)C(=O)N[C@@H](CC(N)=O)C(=O)N[C@H](C(=O)N[C@@H](Cc1ccc(O)cc1)C(N)=O)[C@@H](C)O)[C@@H](C)O
On to B4, for which, in assay [1], the “Amylin receptor human EC50” value is 487 pM. Moreover, the “CTa receptor human EC50” value in assay [2] was found to be 124 pM.
